Paper PMC7111274

What was measured:
Assay in all cases: SEC
[1] = target: PEDV 3CL^pro variant R294A (porcine epidemic diarrhea virus (FJZZ strain))
[2] = target: PEDV 3CL^pro variant Q295A (porcine epidemic diarrhea virus (FJZZ strain))
[3] = target: PEDV 3CL^pro variant R4A (porcine epidemic diarrhea virus (FJZZ strain))
[4] = target: PEDV 3CL^pro variant S138A (porcine epidemic diarrhea virus (FJZZ strain))

Substance: PEDV 3CL^pro variant R294A (enzyme)
- stoichiometry N [1]: 2

Substance: PEDV 3CL^pro variant Q295A (enzyme)
- stoichiometry N [2]: 2

Substance: PEDV 3CL^pro variant R4A (enzyme)
- stoichiometry N [3]: 2

Substance: PEDV 3CL^pro variant S138A (enzyme)
- stoichiometry N [4]: 2
